Experiments:
[1] = target: PD1 (immobilized target, Example 7); assay: SPR, PD1 immobilized on CM5 chip, Langmuir 1:1
CD3 (Example 7) = assay: SPR, biotinylated CD3 on SA chip, Langmuir 1:1
CD3 (Example 7), sequence (P22646 22-108): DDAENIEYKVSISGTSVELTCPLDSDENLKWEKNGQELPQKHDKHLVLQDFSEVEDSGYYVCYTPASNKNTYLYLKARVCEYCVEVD

| Binder | Kd [1] | koff [1] | kon [1] | Kd (CD3 (Example 7)) | koff (CD3 (Example 7)) | kon (CD3 (Example 7)) |
| --- | --- | --- | --- | --- | --- | --- |
| 145-2C11 Fab NH 128187 (bispecific antibody, modifications not checked) heavy: not shown light: DIQMTQSPSSLPASLGDRVTINCQASQDISNYLNWYQQKPGKAPKLLIYYTNKLADGVPSRFSGSGSGRDSSFTISSLESEDIGSYYCQQYYNYPWTFGPGTKLEIKRADAKPTVSIFPPSSEQLGTGSATLVCFVNNFYPKDINVKWKVDGSEKRDGVLQSVTDQDSKDSTYSLSSTLSLTKADYERHNLYTCEVTHKTSTAAIVKTLNRNEC | 4.61 nM | 0.000229 s⁻¹ | 49600 M⁻¹ s⁻¹ | 10.8 nM | 0.00306 s⁻¹ | 284000 M⁻¹ s⁻¹ |
| 145-2C11 Fab CH 128187 (bispecific antibody, modifications not checked) heavy: not shown light: DIQMTQSPSSLPASLGDRVTINCQASQDISNYLNWYQQKPGKAPKLLIYYTNKLADGVPSRFSGSGSGRDSSFTISSLESEDIGSYYCQQYYNYPWTFGPGTKLEIKRADAKPTVSIFPPSSEQLGTGSATLVCFVNNFYPKDINVKWKVDGSEKRDGVLQSVTDQDSKDSTYSLSSTLSLTKADYERHNLYTCEVTHKTSTAAIVKTLNRNEC | 686 nM | 9.45e-05 s⁻¹ | 138 M⁻¹ s⁻¹ | 2.14 nM | 0.00126 s⁻¹ | 587000 M⁻¹ s⁻¹ |
| 145-2C11 Fab CL 128187 (bispecific antibody, modifications not checked) heavy: EVQLVESGGGLVQPGKSLKLSCEASGFTFSGYGMHWVRQAPGRGLESVAYITSSSINIKYADAVKGRFTVSRDNAKNLLFLQMNILKSEDTAMYYCARFDWDKNYWGQGTMVTVSSAKTTAPSVYPLAPACDSTTSTTNTVTLGCLVKGYFPEPVTVIWNSGALTSGVHTFPSVLHSGLYSLSSSVTVPSSTWPSQTVTCNVAHPASSTTVDLKIE light: not shown | 36.2 nM | 0.000282 s⁻¹ | 7780 M⁻¹ s⁻¹ | 3.92 nM | 0.0015 s⁻¹ | 381000 M⁻¹ s⁻¹ |
